Test results reported in US20140178378A1.

Target: IL-6/sIL-6R complex
Experiment: cell-based or functional assay

Substance: wild type sgp130Fc (from UniProt P40189 23-619) (Fc fusion)
- IC50, inhibition of IL-6/sIL-6R-induced proliferation of BAF3/gp130 cells (MTS cell viability assay, 3 days): 0.8 mg/L
